Experimental data: IntAct's records for PubMed 12646039

B1: E3 ubiquitin-protein ligase RHA2A (Arabidopsis thaliana (Mouse-ear cress)), Q9ZT50 (parent)
chain: MGLQGQLSDVSSDSIPLMLLSLLAVFINHLRSFLLRLTSKSNPNLPVDDVSIASGLANIIVLADQLSLNRLFSYRCGDGGGGGSDCVVCLSKLKEGEEVRKLECRHVFHKKCLEGWLHQFNFTCPLCRSALVSDDCVSKTQRSVGRDLISCFSLH
partner: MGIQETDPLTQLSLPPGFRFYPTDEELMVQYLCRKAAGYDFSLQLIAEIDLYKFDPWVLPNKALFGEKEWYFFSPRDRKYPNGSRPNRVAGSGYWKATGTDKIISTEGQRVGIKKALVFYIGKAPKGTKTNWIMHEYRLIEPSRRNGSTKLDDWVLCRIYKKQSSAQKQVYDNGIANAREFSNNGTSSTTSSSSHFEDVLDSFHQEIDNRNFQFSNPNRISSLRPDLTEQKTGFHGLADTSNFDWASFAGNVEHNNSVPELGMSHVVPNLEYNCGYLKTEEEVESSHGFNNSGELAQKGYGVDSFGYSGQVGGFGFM

Variants of: B1
Details: with nac19_arath NAC019, Q9C932

effect of a mutation on the interaction	Variant
decreasing interaction	MGLQGQLSDVSSDSIPLMLLSLLAVFINHLRSFLLRLTSKSNPNLPVDDVSIASGLANIIVLADQLSLNRLFSYRCGDGGGGGSDCVVCLSKLKEGEEVRKLPCRHVFHKKCLEGWLHQFNFTCPLCRSALVSDDCVSKTQRSVGRDLISCFSLH [E103P]
decreasing interaction	MGLQGQLSDVSSDSIPLMLLSLLAVFINHLRSFLLRLTSKSNPNLPVDDVSIASGLANIIVLADQLSLNRLFSYRCGDGGGGGSDCVVSLSKLKEGEEVRKLECRHVFHKKCLEGWLHQFNFTCPLCRSALVSDDCVSKTQRSVGRDLISCFSLH [C89S]
